167 variants from the RNAGym collection of RNA variant scans (doi:10.7554/elife.80360) can be followed below.

Sequences and labels used below:
B1: Hairpin Ribozyme (parent)
chain: GUCCUCUUUCACGUGCGCGUGAAAGAGAGAAGUGAACCAGAGAAACACACGUUGUGGUAUAUUACCUGGUA

The variants in this data set derive from B1. The experiment in a line: self-cleavage, relative activity (ratio to wild type); higher = more cleavage; co-transcriptional.
Turning to A30C A59G, the self-cleavage was 0.0647.

G17C C46G: the self-cleavage amounted to 0.074.

In the case of G19U A30G, the self-cleavage amounted to 0.12.

As for C4A U14A, the self-cleavage came out at 0.191.

A23G A43C: the self-cleavage is 0.169.

For the variant A36C G57C, the self-cleavage came out at 0.17.

For the variant U33G G34A, the self-cleavage amounted to 0.317.

Take C48G U58A: the self-cleavage amounted to 0.105.

Take U14C U67A: the self-cleavage was 0.151.

Turning to A23G G32U, the self-cleavage is 0.0923.

Regarding U8A G34A, the self-cleavage was 0.98.

As for A11G G40A, the self-cleavage came out at 0.291.

Consider C50U A64U, for which the self-cleavage is 0.0365.

Take C37A G57C: the self-cleavage amounted to 0.158.

With U8A U20C, the self-cleavage is 0.928.

Regarding C3U G34U, the self-cleavage stood at 1.17.

In the case of A44G A61G, the self-cleavage was 0.152.

In the case of C3A A28U, the self-cleavage was found to be 0.689.

For U33A C38A, the self-cleavage is 0.13.

Regarding U5A A36U, the self-cleavage amounted to 0.255.

For U14C A41C, the self-cleavage was found to be 1.18.

With C3U U5C, the self-cleavage was 0.299.

On to C48A, for which the self-cleavage was 0.157.

Take U14G G51U: the self-cleavage was 1.02.

With G1U G27U, the self-cleavage was 0.199.

Turning to A11U G21A, the self-cleavage is 0.586.

Regarding A43G G51C, the self-cleavage was 0.107.

On to U2C G32U, for which the self-cleavage is 0.183.

Regarding U2C A31U, the self-cleavage was determined as 0.25.

In the case of U7A A64G, the self-cleavage came out at 0.525.

On to G25A A44G, for which the self-cleavage was determined as 0.158.

As for G1U U63G, the self-cleavage is 0.0703.

For the variant A61U A64U, the self-cleavage was determined as 0.3.

A24G A35U: the self-cleavage was 0.645.

Regarding U5G A26C, the self-cleavage was determined as 0.68.

Take A36G G56C: the self-cleavage was 0.0421.

C38U A41U: the self-cleavage was 0.742.

With C46G G69C, the self-cleavage was found to be 0.123.

On to U2G G57A, for which the self-cleavage stood at 0.169.

Take U2G G19C: the self-cleavage came to 0.338.

With U2G G25U, the self-cleavage worked out at 0.359.

In the case of A31C A43U, the self-cleavage is 0.0953.

With C16A G68A, the self-cleavage stood at 0.305.

On to U2C U52A, for which the self-cleavage was 0.287.

As for C12U C38A, the self-cleavage worked out at 0.143.

In the case of G1U U52A, the self-cleavage amounted to 0.0595.

Consider U33G A45U, for which the self-cleavage worked out at 0.0465.

C16G G57A: the self-cleavage amounted to 0.0803.

Consider G25A A61U, for which the self-cleavage was found to be 0.0154.

C6A A64U: the self-cleavage is 0.163.

Regarding G54U C66A, the self-cleavage came to 0.228.

In the case of A28U G57A, the self-cleavage amounted to 0.152.

Regarding U9C C10G, the self-cleavage is 0.582.

C18U A41C: the self-cleavage was determined as 1.09.

Take A23G C48U: the self-cleavage worked out at 0.232.

For C12G G21A, the self-cleavage came out at 0.683.

Turning to G19U A39G, the self-cleavage was determined as 0.297.

C10A U20C: the self-cleavage is 0.732.

Consider U5C A45G, for which the self-cleavage amounted to 0.157.

In the case of G21U G69A, the self-cleavage worked out at 0.374.

Regarding G25U A59C, the self-cleavage was found to be 0.195.

Turning to U52G U70C, the self-cleavage is 0.605.

With G56U U62G, the self-cleavage turned out to be 0.104.

In the case of U9A A49C, the self-cleavage is 0.254.

G54C G57U: the self-cleavage worked out at 0.217.

Take A39G A71C: the self-cleavage came out at 0.303.

As to A22C A49C, the self-cleavage stood at 0.264.

With U8G A31U, the self-cleavage is 0.112.

As to A47U C50A, the self-cleavage was determined as 0.113.

For C50G A64C, the self-cleavage is 0.201.

As for U5A G25C, the self-cleavage was 0.162.

A22U C50A: the self-cleavage turned out to be 0.211.

On to G1U A30G, for which the self-cleavage stood at 0.105.

As for A23C C50G, the self-cleavage worked out at 0.259.

With G32A C37A, the self-cleavage was found to be 0.115.

With A23G G25A, the self-cleavage stood at 0.413.

As to G40A A71U, the self-cleavage was 0.198.

A39C A61U: the self-cleavage was determined as 0.125.

G27U U52C: the self-cleavage amounted to 0.377.

Consider C12U G69U, for which the self-cleavage turned out to be 0.153.

Regarding U2A C16U, the self-cleavage worked out at 0.259.

As to A44C A45G, the self-cleavage was found to be 0.208.

Turning to C16U G32U, the self-cleavage was found to be 0.134.

As to A36U A44C, the self-cleavage came to 0.112.

For A30U A44C, the self-cleavage came out at 0.0664.

Take C50G U62G: the self-cleavage came to 0.151.

As for G21U U53C, the self-cleavage worked out at 0.85.

On to G19A U60G, for which the self-cleavage came out at 0.448.

On to C4A G54C, for which the self-cleavage turned out to be 0.133.

In the case of G29U A59C, the self-cleavage was 0.0619.

Turning to C6A U9A, the self-cleavage amounted to 0.417.

As to G40U A41G, the self-cleavage is 0.419.

For the variant U52A G57C, the self-cleavage is 0.0886.

For the variant G40C A41U, the self-cleavage was 0.13.

A30C A43C: the self-cleavage is 0.261.

For the variant C16G G68U, the self-cleavage was determined as 0.132.

C6G A28G: the self-cleavage was 0.605.

In the case of G27A G69U, the self-cleavage came to 0.182.

Take A44U C65G: the self-cleavage worked out at 0.178.

G40C U52C: the self-cleavage amounted to 0.137.

With U62G A64G, the self-cleavage amounted to 0.166.

Consider U20A G68A, for which the self-cleavage is 0.332.

Take G32A A59G: the self-cleavage is 0.189.

As to A43U U58A, the self-cleavage was 0.0678.

With G21A C38U, the self-cleavage came to 0.466.

As for C38U G56U, the self-cleavage was 0.14.

For the variant A11C G56A, the self-cleavage worked out at 0.15.

On to U5C U9C, for which the self-cleavage stood at 0.457.

Turning to U9G U58A, the self-cleavage turned out to be 0.549.

Take C12A U20G: the self-cleavage stood at 0.732.

Turning to A23C A31U, the self-cleavage is 0.179.

As to A36G A41G, the self-cleavage was 0.536.

With C18U G29C, the self-cleavage turned out to be 0.116.

For G51A G54A, the self-cleavage worked out at 0.62.

Consider G25A C37A, for which the self-cleavage was found to be 0.199.

For C4G A26G, the self-cleavage was found to be 0.16.

For the variant C4U G69A, the self-cleavage is 0.12.

In the case of C10G A47G, the self-cleavage came out at 0.177.

As for A23U U62A, the self-cleavage amounted to 0.106.

Take G21A G57A: the self-cleavage is 0.192.

Take G17C U20A: the self-cleavage worked out at 0.736.

On to U14A A64U, for which the self-cleavage was found to be 0.171.

As for G15A A23G, the self-cleavage amounted to 0.862.

Consider U2G G40U, for which the self-cleavage stood at 0.072.

For G19C G40A, the self-cleavage was 0.343.

For the variant G29U A41U, the self-cleavage is 0.116.

For the variant G40U U53C, the self-cleavage is 0.344.

Turning to G42U U60G, the self-cleavage worked out at 0.218.

Take C10U G15U: the self-cleavage was 0.843.

For U2G A36U, the self-cleavage is 0.318.

With C6A C48A, the self-cleavage was determined as 0.084.

Regarding G17U A41G, the self-cleavage was determined as 1.08.

Consider U7G A23C, for which the self-cleavage was found to be 0.624.

Turning to A59G A61U, the self-cleavage was determined as 0.141.

Take U60A C66G: the self-cleavage came to 0.191.

For A30G A35U, the self-cleavage came to 0.0439.

Consider C48G U55C, for which the self-cleavage amounted to 0.106.

For U53C U60G, the self-cleavage is 0.557.

With C3G G34U, the self-cleavage came out at 1.01.

Turning to G25C G54U, the self-cleavage turned out to be 0.245.

Take G15C G69C: the self-cleavage amounted to 0.275.

With U14A C38G, the self-cleavage is 0.0908.

For the variant U62C A64U, the self-cleavage is 0.187.

A36G A47C: the self-cleavage was 0.372.

Turning to G40C U58C, the self-cleavage stood at 0.0707.

On to C10G C12U, for which the self-cleavage is 0.503.

For U33G G42A, the self-cleavage was determined as 0.0778.

Turning to C3U G57C, the self-cleavage turned out to be 0.094.

Regarding U14G G42A, the self-cleavage came out at 0.163.

For U8A C37G, the self-cleavage came to 0.241.

On to A36U U58A, for which the self-cleavage stood at 0.386.

Take G15C G54U: the self-cleavage amounted to 0.647.

Consider G56U U60A, for which the self-cleavage was 0.219.

As to U14G A28U, the self-cleavage amounted to 0.39.

Take A47U G68C: the self-cleavage was found to be 0.26.

As to A31C G34C, the self-cleavage was 0.127.

On to U2G U52G, for which the self-cleavage worked out at 0.458.

U2A A31G: the self-cleavage was found to be 0.334.

On to U52C U55C, for which the self-cleavage came to 0.536.

On to C46U U67G, for which the self-cleavage came out at 0.171.

Turning to U7G C38U, the self-cleavage was determined as 0.377.

As to U2A A11C, the self-cleavage stood at 0.288.

In the case of G17U A44C, the self-cleavage was 0.152.

Turning to A30U A61G, the self-cleavage worked out at 0.0939.

In the case of A44U G69U, the self-cleavage amounted to 0.299.

As to G17A A44U, the self-cleavage was 0.183.

Turning to U7C U33C, the self-cleavage came to 0.157.
